Measurements taken from patent US7939292B2, “Modified heparinase III and methods of sequencing therewith” (Massachusetts Institute of Technology, priority 2000, dated 2011).

Columns and labels:
B16BL6 melanoma [1] = experiment: Primary tumor growth of B16BL6 melanoma in mice treated with heparinases; assay type: in vivo; conditions: 0.5 mg/kg/day
From the text: Heparinases I and III, which have very distinct substrate specificities for cleaving HLGAGs, were employed as tools to investigate the role of HLGAGs in tumor growth and metastasis. While heparinase I cleaves at the highly sulfated regions of HLGAGs, heparinase III only cleaves at the under-sulfated regions of the polysaccharide chain, thereby rendering these enzymes powerful tools to investigate in vivo and in vitro roles of HLGAGs, in development, morphogenesis, angiogenesis etc. To examine the roles of HLGAGs in tumor growth and metastasis, we used B16BL6 melanoma as a model system and treated tumor-bearing mice with either heparinases I or III to investigate both primary tumor growth as well as tumor metastasis. Consistent with the current paradigm, heparinase I accelerated tumor growth (FIG. 8). At a dosage of 0.5 mg/kg/day of heparinase I, tumor growth was increased by about 39%. […] Inhibition of primary tumor growth by heparinase III was first observed at 2 mg/kg per day. Tumor growth was inhibited by 73% at 12 mg/kg per day, the maximum dosage tested in the study (FIG. 8).
Mice, 15 days after tumor implantation with B16BL6 melanoma, were examined. 4×10^5 log growth phase B16BL6 melanoma cells in 0.1 ml PBS were injected to the flank of C57BL/6 mice on day 1. Daily injection of 0.1 ml of PBS, heat inactivated hep III or active heparinase III (2 mg/ml, recombinantly expressed, purified, buffer exchanged with PBS, and concentrated) started at the day 4 and continued throughout the experiment. At day 7, osmotic pumps (100 μl capacity delivering at 0.5 μl per hour) containing PBS or 3 mg/ml hep III were implanted subcutaneously at a place remote from the tumor site. Mice were sacrificed at day 15.
FIG. 8 depicts the tumor volume of the tumors isolated from the mice described above. Tumor volume was measured daily after day 7 with a caliper and calculated with the formula [volume=0.52×(width)^2×(length)].

B16BL6 melanoma [2] = experiment: Histological examination of tumor samples (apoptosis, TdT labeling); assay type: in vivo, mice
Protocol: Immunohistochemistry was done as described (Parangi et al., 1996; O'Reilly et al., 1994) with minor modifications. Briefly, tumor tissues were fixed in either 4% (vol/vol) formaldehyde overnight for von Willebrand factor (vWF) staining and terminal deoxynucleotide transferase (TdT) labeling or in Glyo-Fixx solution overnight for Ki-67 nuclear antigen staining. Tissues were embedded in paraffin according to standard histological procedures. For vWF staining, sections (5 μm thick) were incubated with 0.2 N HCl for 10 min. autoclaved in a Coplin jar immersed with Target retrieval Solution (Dako) for 15 min. and permeabilized with 2 μg/ml proteinase K at 37° C. for 15 min. Sections were incubated with rabbit anti-human vWF antibody coupled with horseradish peroxidase (HRP) (Dako). Positive staining was detected by substrate reaction with diaminobenzidine. Sections were counterstained with Gill's hematoxylin and mounted in Permount (Fisher). […] Capillary density was determined by counting the number of vWF-positive capillaries per high power field (HPF, ×200). The proliferative and apoptotic indices of tumor cells within areas of viable tumor were estimated from the percentage of cells scored under a light microscope at 400-fold magnification. A minimum of 2000 cells were counted in each animal. # indicates standard error.

B16BL6 melanoma cells = experiment: Lung metastasis of heparinase treated B16BL6 cells after tail vein injection; assay type: in vivo, mice; conditions: cells treated 30 min at 37° C. before tail vein injection; 13 days
Protocol: We next investigated the ability of heparinase treated B16BL6 melanoma cells to metastasize to the lungs. B16BL6 cells in log growth phase were briefly trypsinized and resuspended in PBS to a final concentration of 1×10^6 per ml. Prior to injection, cells were treated with either PBS, hep I […] or hep III […] for 30 min. at 37° C. 0.2 ml cell suspensions (2×10^5 cells) were injected slowly via tail vein. Mice were sacrificed 13 days later and lungs were harvested, rinsed with tap water. The number of nodules on lung surface were counted with the assistance of a dissection microscope. * indicates p<0.05 (Mann-Whitney test).

B16BL6 cells = experiment: Growth in mice of B16BL6 cells after heparinase removal of the HLGAG coat; assay type: in vivo; conditions: HLGAG coat removed
From the text: There are two possible mechanisms by which heparinase may be acting on tumor cells. For instance, heparinase III treatment of cells may result in cells losing their unique surface HLGAG coat and this directly or indirectly may impinge on their ability to grow or metastasize. On the other hand heparinase III treatment of cells may also result in the generation of distinct HLGAG fragments, and these fragments could then directly or indirectly modulate tumor cell function. It was thought that heparinase III may function though either one of these mechanisms or through some combination of these mechanisms. To investigate the mechanisms of action further, we treated B16BL6 cells with either heparinases I or III, to remove the HLGAG coat on the tumor cell surface.
In further support of this conclusion ex vivo digestion of the HLGAG coat present on tumor cells with either heparinase, followed by centrifugation and resuspension in PBS to remove the enzyme and HLGAG fragments released from the cell surface, prior to in vivo injection results in the cells being functionally identical to controls. Thus the released tumor cell HLGAG fragments appear to play the key role in modulating tumor growth and metastasis.

Erk-1, 2 = Erk-1, 2 activation in FGF2 stimulated B16BL6 cells (immunoblot); assay type: cell-based; conditions: enzyme 200 nM 30 min before 50 ng/ml FGF2
Protocol: a. Methods: B16BL6 cells in 10 cm culture dishes were serum starved for 48 hours before stimulation with 50 ng/ml FGF2. Cells were stimulated for 20 minutes before whole cell lysates were prepared with 1 ml modified RIPA buffer containing various enzyme inhibitors (50 mM Tris-HCl, pH 7.4, 1% NP-40, 0.25% Na-deoxycholate, 150 mM NaCl, 1 mM EDTA, 1 mM PMSF, 1 μg/ml aprotinin, leupeptin, and pepstatin, 1 mM activated Na3VO4, 1 mM NaF). Protein concentration in the lysate was determined using the Bio-Rad protein assay kit (BioRad) and adjusted accordingly for electrophoresis analysis. For the heparinase treated groups, cells were treated with either hep I or hep III (200 nM) for 30 min at 37° C. prior to addition of FGF2. The immunoblot was probed with anti-Erk-1, 2 or anti-phospho-Erk-1, 2 antibody (New England Biolabs; MA) and detected by anti-rabbit IgG conjugated to HRP using SuperSignal West Pico Chemiluminescent substrate (Pierce, Ill.).

FGFR1 = FGFR1 phosphorylation in B16BL6 tumor samples; design: species or system mice; conditions: mouse, in vivo
Protocol: c. Effect of treatment of tumor with hep I and hep III in FGFR1 activation compared to PBS. Level of phosphorylated FGFR1 in tumor samples was assessed by standard immunoprecipitation followed by Westernblotting with phosphotyrosine specific antibody. Primary B16BL6 tumors were grown and treated as described earlier and at day 15 the tumor was harvested in cold modified RIPA buffer containing enzyme inhibitors and homogenized. The homogenates were past through 25-gauge needle 3 times and centrifuged. The supernatant was adjusted for protein concentration using the Bio-Rad protein assay kit (Bio-Rad). FGFR1 was immunoprecipitated with poly-clonal anti-FGFR1 antibody (Santa Cruz Biotechnology, Inc., CA). Samples were then pelleted, washed, and eluted from the beads by addition of sample buffer and boiled for 3 minutes (Kapila, Y. L., Wang, S. & Johnson, P. W. Mutations in the heparin binding domain of fibronectin in cooperation with the V region induce decreases in pp125(FAK) levels plus proteoglycan-mediated apoptosis via caspases. J Biol Chem 274, 30906-13 (1999).). After electrophoresis, the gel was transferred to nitrocellulose membrane by standard methods. The immunoblot was probed with phosphotyrosine specific antibody conjugated to HRP (RC20; Transduction Laboratories, Lexington, Ky.) and developed with SuperSignal West Pico Chemiluminescent substrate. […]

Akt = Akt activation in B16BL6 tumor; design: species or system mice; conditions: mouse, in vivo
Protocol: f. Effect of heparinase treatment on Akt activation. The primary tumor was treated and processed as described above. Akt antibody and phospho-Akt antibody from New England Biolabs were used to probe the immunoblot.

B1: heparinase I: HLGAG degrading enzyme that cleaves at the highly sulfated regions of HLGAGs (protein, UniProt Q05819 22-384, looked up)
Heparin lyase I: QQKKSGNIPYRVNVQADSAKQKAIIDNKWVAVGINKPYALQYDDKLRFNGKPSYRFELKAEDNSLEGYAAGETKGRTELSYSYATTNDFKKFPPSVYQNAQKLKTVYHYGKGICEQGSSRSYTFSVYIPSSFPDNATTIFAQWHGAPSRTLVATPEGEIKTLSIEEFLALYDRMIFKKNIAHDKVEKKDKDGKITYVAGKPNGWKVEQGGYPTLAFGFSKGYFYIKANSDRQWLTDKADRNNANPENSEVMKPYSSEYKTSTIAYKMPFAQFPKDCWITFDVAIDWTKYGKEANTILKPGKLDVMMTYTKNKKPQKAHIVNQQEILIGRNDDDGYYFKFGIYRVGNSTVPVTYNLSGYSETAR
increase of tumor growth (B16BL6 melanoma [1]): about 39%
apoptosis in tumor samples, enzyme treated tumors (B16BL6 melanoma [2]): reduced apoptosis
ability of treated B16BL6 cells to metastasize to the lungs compared to PBS treated cells (B16BL6 melanoma cells): marginally effected, if any
ability of treated B16BL6 cells to grow in mice compared to untreated cells (B16BL6 cells): no effect
Erk-1, 2 activation upon FGF2 stimulation (Erk-1, 2): increased Erk-1, 2 activation
phosphorylation of FGFR1 in primary tumor (FGFR1): opposite effect on the phosphorylation of FGFR1
activation of Akt in tumor (Akt): no change in activation of Akt
